[ ]: non-standard residue; d: D form. Aib = CC(C)(N)C(=O)O
T1: murine TFPI (murine, UniProt O54819 29-289, limits assumed)
T1 construct: also called murine TFPI-1
T1 sequence (looked up): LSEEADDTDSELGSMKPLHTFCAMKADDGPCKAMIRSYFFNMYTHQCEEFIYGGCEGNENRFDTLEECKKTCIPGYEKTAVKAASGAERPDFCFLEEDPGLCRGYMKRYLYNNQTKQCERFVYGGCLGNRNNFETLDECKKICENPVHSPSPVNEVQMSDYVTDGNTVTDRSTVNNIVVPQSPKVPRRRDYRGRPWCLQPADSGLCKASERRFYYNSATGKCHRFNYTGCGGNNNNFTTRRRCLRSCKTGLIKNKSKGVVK


Legend:
[1] = biological target: T2, TFPI (human TFPI-1α), as coated or added in the ELISA and model assays (human, UniProt P10646 29-304, limits assumed); assay: cell-based or functional assay
[2] = biological target: T2, TFPI (human TFPI-1α), as coated or …; assay: ELISA affinity (column head says EC50)
murine TFPI = biological target: T1, murine TFPI; assay: not specified

FXa Inhibition EC50 [1] [nM] | EC50 [2] [nM] | binding result (murine TFPI) | Binder
9 |  |  | FQSKPNVHVDGYFERLXAKLK (not fully specified; K(AOA) coupled to PSA (polysialic acid) aldehyde; D-proline at 5; Aib at 17) [JBT2430]
13.4 | 18.2 |  | Ac-FQSK[dP]NVHVDGYFC(linear PEG 40 kDa)RL[Aib]AKL-NH2 [JBT2404]
 |  | binds | FQSKPNVHVDGYFERLXAKLC (N-terminal acetyl (Ac); D-proline at 5; Aib at 17; C-terminal C(PEG), linear PEG 41.5 kD; C-terminal amide (NH2)) [JBT2329]

Source: patent publication US20170157198A1 (BAXALTA, published 2017)
